This is an account of results in patent US5459063A, “Plasmodium falciparum ribonucleotide reductase DNA” (priority 1993, dated 1995).

Read-outs that look alike come from different tables or passages of the source. Ends that are not written are not given here. A value given as a limit tells only on which side of the number the result lay.

Assay [1] has as its target T1, calf thymus/mouse ribonucleotide reductase (mammalian RR) (Bos taurus, UniProt Q32LP1).
T1 sequence (Q32LP1 1-791): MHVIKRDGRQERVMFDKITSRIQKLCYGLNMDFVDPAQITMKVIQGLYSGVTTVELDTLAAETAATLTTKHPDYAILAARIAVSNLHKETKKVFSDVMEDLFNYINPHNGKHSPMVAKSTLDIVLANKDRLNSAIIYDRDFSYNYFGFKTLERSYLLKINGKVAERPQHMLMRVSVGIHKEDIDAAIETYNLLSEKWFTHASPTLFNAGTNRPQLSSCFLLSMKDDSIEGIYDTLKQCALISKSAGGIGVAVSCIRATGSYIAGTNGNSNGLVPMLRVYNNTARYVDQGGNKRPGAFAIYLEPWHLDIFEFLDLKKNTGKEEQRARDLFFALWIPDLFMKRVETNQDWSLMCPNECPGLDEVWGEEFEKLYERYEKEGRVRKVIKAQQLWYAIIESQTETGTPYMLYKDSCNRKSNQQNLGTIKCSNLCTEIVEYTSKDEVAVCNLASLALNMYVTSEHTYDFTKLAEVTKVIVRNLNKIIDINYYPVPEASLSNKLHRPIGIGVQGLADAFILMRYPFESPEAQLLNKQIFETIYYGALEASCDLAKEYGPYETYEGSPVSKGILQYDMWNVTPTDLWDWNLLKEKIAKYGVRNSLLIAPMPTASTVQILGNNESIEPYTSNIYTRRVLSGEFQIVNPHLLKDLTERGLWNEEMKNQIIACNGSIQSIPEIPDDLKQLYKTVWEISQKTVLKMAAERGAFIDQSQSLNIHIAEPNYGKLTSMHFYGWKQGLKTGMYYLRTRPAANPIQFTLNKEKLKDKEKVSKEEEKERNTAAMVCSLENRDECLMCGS
Briefly: biochemical. From the text:
From two to four assays were run

The target in the next assay is T2, human RR (Homo sapiens, UniProt P23921).
T2 sequence (P23921 1-792): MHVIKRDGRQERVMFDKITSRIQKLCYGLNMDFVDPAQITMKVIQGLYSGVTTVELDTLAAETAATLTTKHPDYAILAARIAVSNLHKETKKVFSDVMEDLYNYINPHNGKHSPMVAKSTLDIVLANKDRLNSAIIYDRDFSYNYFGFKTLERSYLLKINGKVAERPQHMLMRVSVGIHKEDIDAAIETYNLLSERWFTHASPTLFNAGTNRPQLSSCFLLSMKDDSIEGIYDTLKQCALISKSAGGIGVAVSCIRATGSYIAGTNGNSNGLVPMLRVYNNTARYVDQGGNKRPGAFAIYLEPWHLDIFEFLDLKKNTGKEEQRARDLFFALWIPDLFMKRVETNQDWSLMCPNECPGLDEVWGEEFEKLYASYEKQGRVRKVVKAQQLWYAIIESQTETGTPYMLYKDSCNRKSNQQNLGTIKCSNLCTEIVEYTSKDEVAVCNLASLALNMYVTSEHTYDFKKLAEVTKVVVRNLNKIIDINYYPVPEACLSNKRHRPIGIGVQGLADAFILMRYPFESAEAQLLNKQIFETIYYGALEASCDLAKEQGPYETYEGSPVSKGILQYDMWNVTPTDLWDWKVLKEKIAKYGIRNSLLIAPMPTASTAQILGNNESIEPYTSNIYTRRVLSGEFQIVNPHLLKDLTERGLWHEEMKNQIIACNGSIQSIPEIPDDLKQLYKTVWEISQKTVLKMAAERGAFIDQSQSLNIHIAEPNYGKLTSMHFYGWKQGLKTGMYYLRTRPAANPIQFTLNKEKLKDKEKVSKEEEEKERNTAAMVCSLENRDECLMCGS
The following applies: background, "about"; cited from earlier work.

For assay [2], the target named is calf thymus R1 (calf).
Assay [3] deals with S. cerevisiae (yeast) RR (S. cerevisiae).
Assay [4] has as its target calf thymus R1 (calf). The source holds these as a separate data set.
In assay [5] the target is calf thymus R1 (calf). This is another data set of the same source.

For the molecule “Ac-FTLDADF [Peptide 4, Ac- (FTLDADF), reference compound]”, the IC50 is 8 to 20 µM in assay [1]; 8 to 20 µM in assay [1] (IC50, Mammalian RR, Table 5, mammalian RR, Dixon plots); 10 to 20 µM in assay [1] (IC50 on mammalian RR activity, Example 54 text, peptide bound to purified calf thymus R1 before adding recombinant mouse R2); 10 to 20 µM on human RR.

In the assay with calf thymus R1 (calf) [2], Ac-FLDADF [Ac-(FLDADF) (6 pos. del.)] came in with an IC50, inhibition of mammalian RR activity of 412 µM and a Percent RI (percent relative inhibitory potency), mammalian RR activity of 2.5%.

In assay [3], Ac-AGAFTFNEDF showed an IC50, inhibition of Yeast RR activity of 25 µM.

On to Ac-FTLDADL [Ac-(FTLDADL)], for which, in the assay with calf thymus R1 (calf) [2], the IC50, inhibition of mammalian RR activity was over 400 µM and the Percent RI (percent relative inhibitory potency), mammalian RR activity is under 3%.

In assay [3], Ac-FTFNEDF [Ac-(FTFNEDF)] gave an IC50, inhibition of Yeast RR activity of 25 µM. For the same molecule, the IC50, inhibition of mammalian RR activity with calf thymus R1 (calf) [4] came out at 100 µM.

In the assay with calf thymus R1 (calf) [2], Ac-FTLDF [Ac-(FTLDF) (3 & 4 pos. del.)] gave a Percent RI (percent relative inhibitory potency), mammalian RR activity of 2.5%.

With Ac-NSFTLDADF, the Percent RI (percent relative inhibitory potency), mammalian RR activity in the assay with calf thymus R1 (calf) [2] was 100%.

Ac-TFNEDF [Ac-(TFNEDF)] gave an IC50, inhibition of Yeast RR activity in assay [3] of 600 µM. The IC50, inhibition of mammalian RR activity in the assay with calf thymus R1 (calf) [4] amounted to 600 µM.

Turning to Ac-FTLDDF [Ac-(FTLDDF) (3 pos. del.)], in the assay with calf thymus R1 (calf) [2], the IC50, inhibition of mammalian RR activity was found to be 322 µM and the Percent RI (percent relative inhibitory potency), mammalian RR activity turned out to be 3%.

The molecule Ac-FTLDADF [Ac-(FTLDADF)] yielded a Percent RI (percent relative inhibitory potency), mammalian RR activity with calf thymus R1 (calf) [2] of 100%. The IC50, inhibition of Yeast RR activity in assay [3] amounted to 25 µM. The molecule further displayed an IC50, inhibition of mammalian RR activity with calf thymus R1 (calf) [5] of 10 to 20 µM.

Consider Ac-FTLDAAF [Ac-(FTLDAAF)], for which the Percent RI (percent relative inhibitory potency), mammalian RR activity in the assay with calf thymus R1 (calf) [2] is 28%.

As for Ac-FTLDADFAA, in the assay with calf thymus R1 (calf) [2], the IC50, inhibition of mammalian RR activity worked out at 500 µM and the Percent RI (percent relative inhibitory potency), mammalian RR activity amounted to 2.1%.

A word on the IC50: it is the concentration at which inhibition is half-maximal.
